Assay [1] concerns the target T1, HPV16-E5 peptide on HLA-C*08:02 (human).
T1 peptide: NLDTASTTL
The assay can be described thus: cytokine release.

For assay [2], the target named is T2, HPV16-E5 peptide on HLA-C*05:01 (human).
T2 peptide: NLDTASTTL
Put plainly: cytokine release.

Assay [3] has as its target T3, HPV16-E2 peptide on HLA-A*02:01 (human).
T3 peptide: TLQDVSLEVYL
The assay can be described thus: killing.

B1: E5-NLD-TCR (TCR, V domains shown)
Valpha: AQKVTQAQTEISVVEKEDVTLDCVYETRDTTYYLFWYKQPPSGELVFLIRRNSFDEQNEISGRYSWNFQKSTSSFNFTITASQVVDSAVYFCALSEGGGSQGNLIFGKGTKLSVKP
Vbeta: GVSQSPRYKVTKRGQDVALRCDPISGHVSLYWYRQALGQGPEFLTYFNYEAQQDKSGLPNDRFSAERPEGSISTLTIQRTEQRDSAMYRCASSPELAGPQETQYFGPGTRLLVL
Regarding B1, the binding result in assay [1] and in assay [2] was “recognises” each time.

B2: E2-TLQ-TCR (TCR, V domains shown)
Valpha: AQTVTQSQPEMSVQEAETVTLSCTYDTSESNYYLFWYKQPPSRQMILVIRQEAYKQQNATENRFSVNFQKAAKSFSLKISDSQLGDTAMYFCAFTYGGSQGNLIFGKGTKLSVKP
Vbeta: EPEVTQTPSHQVTQMGQEVILRCVPISNHLYFYWYRQILGQKVEFLVSFYNNEISEKSEIFDDQFSVERPDGSNFTLKIRSTKLEDSAMYFCASRASVGVGTGELFFGEGSRLTVL
In the case of B2, the binding result in assay [3] is “recognises”.
